Starred links: 1 amine or outer side, 2 acyl side, 3 side chain; linkers in the order of their positions; H or OH if unused. Non-standard residues stand in square brackets, D forms with d. *: point of attachment. AC4Abu = α-carboxy-4-aminobutyric acid, O=C(C(CCN[*:1])C(=O)[*:3])[*:2]; dBip = N[C@H](Cc1ccc(-c2ccccc2)cc1)C(=O)O; Oic = O=C(O)[C@@H]1C[C@@H]2CCCC[C@@H]2N1; Phe(4-Cl) = N[C@@H](Cc1ccc(Cl)cc1)C(=O)O; dPhe(4-Cl) = N[C@H](Cc1ccc(Cl)cc1)C(=O)O; Heptadecanoyl = CCCCCCCCCCCCCCCCC(=O)*; Phe(4-I) = N[C@@H](Cc1ccc(I)cc1)C(=O)O; γGlu = O=C(O)[C@H](CCC(=O)[*:2])N[*:1]; C12 diacid = O=C(O)CCCCCCCCCCC(=O)*; NMeR = CN[C@@H](CCCNC(=N)N)C(=O)O; hArg = N=C(N)NCCCC[C@H](N)C(=O)O; Cha = N[C@@H](CC1CCCCC1)C(=O)O; NMeL = CN[C@@H](CC(C)C)C(=O)O; Nle = CCCC[C@H](N)C(=O)O; AEEA = NCCOCCOCC(=O)O; Aib = CC(C)(N)C(=O)O; Mpa = O=C(O)CCS
T1: human APJ receptor (human, UniProt P35414 1-380)
T1 sequence (looked up): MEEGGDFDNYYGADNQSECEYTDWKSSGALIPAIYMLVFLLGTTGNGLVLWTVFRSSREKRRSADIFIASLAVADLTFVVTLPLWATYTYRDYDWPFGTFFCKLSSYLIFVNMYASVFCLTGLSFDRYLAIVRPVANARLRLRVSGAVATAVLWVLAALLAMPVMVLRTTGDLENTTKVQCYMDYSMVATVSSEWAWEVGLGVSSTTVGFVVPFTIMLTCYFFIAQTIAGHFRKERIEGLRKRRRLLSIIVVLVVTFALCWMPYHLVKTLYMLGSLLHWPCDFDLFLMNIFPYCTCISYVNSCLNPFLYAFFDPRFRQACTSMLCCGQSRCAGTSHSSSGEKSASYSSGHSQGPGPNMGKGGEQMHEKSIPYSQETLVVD

T2: rat APJ receptor (rat, UniProt Q9JHG3 1-377)
T2 sequence (looked up): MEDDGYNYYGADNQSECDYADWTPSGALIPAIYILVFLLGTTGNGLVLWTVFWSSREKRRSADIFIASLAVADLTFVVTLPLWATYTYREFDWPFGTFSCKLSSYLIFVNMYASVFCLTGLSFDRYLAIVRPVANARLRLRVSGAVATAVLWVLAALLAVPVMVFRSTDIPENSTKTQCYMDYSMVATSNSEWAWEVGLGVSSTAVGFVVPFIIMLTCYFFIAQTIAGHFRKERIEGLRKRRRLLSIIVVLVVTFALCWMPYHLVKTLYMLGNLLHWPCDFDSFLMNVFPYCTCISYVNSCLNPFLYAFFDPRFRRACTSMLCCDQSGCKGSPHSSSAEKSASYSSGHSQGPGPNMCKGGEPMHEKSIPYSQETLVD

B1: SEQ ID NO: 349 (peptide)
peptide: {C12 diacid}-[γGlu][AEEA][AEEA]Q[hArg]P[dR][NMeL]SHKG[Oic][Phe(4-I)]P[dBip]-OH
SMILES: CC(C)C[C@@H](C(=O)N[C@@H](CO)C(=O)N[C@@H](Cc1c[nH]cn1)C(=O)N[C@@H](CCCCN)C(=O)NCC(=O)N1[C@H](C(=O)N[C@@H](Cc2ccc(I)cc2)C(=O)N2CCC[C@H]2C(=O)N[C@H](Cc2ccc(-c3ccccc3)cc2)C(=O)O)C[C@@H]2CCCC[C@@H]21)N(C)C(=O)[C@@H](CCCNC(=N)N)NC(=O)[C@@H]1CCCN1C(=O)[C@H](CCCCNC(=N)N)NC(=O)[C@H](CCC(N)=O)NC(=O)COCCOCCNC(=O)COCCOCCNC(=O)CC[C@H](NC(=O)CCCCCCCCCCC(=O)O)C(=O)O
B2: SEQ ID NO: 112 (peptide)
peptide: QRPRLSHKGPXPF
modifications: {H2}[MerPr](10K mPEG acetamide)Q[hArg]P[NMeArg][aMeLeu]SHKGP[Nle]P[4-Cl-F]{COOH}
B3: SEQ ID NO: 63 (peptide)
peptide: Ac-RQRPR[Cha]SHKGP[Nle]P[Phe(4-Cl)]-OH
SMILES: CCCC[C@H](NC(=O)[C@@H]1CCCN1C(=O)CNC(=O)[C@H](CCCCN)NC(=O)[C@H](Cc1c[nH]cn1)NC(=O)[C@H](CO)NC(=O)[C@H](CC1CCCCC1)NC(=O)[C@H](CCCNC(=N)N)NC(=O)[C@@H]1CCCN1C(=O)[C@H](CCCNC(=N)N)NC(=O)[C@H](CCC(N)=O)NC(=O)[C@H](CCCNC(=N)N)NC(C)=O)C(=O)N1CCC[C@H]1C(=O)N[C@@H](Cc1ccc(Cl)cc1)C(=O)O
B4: SEQ ID NO: 64 (peptide)
peptide: Ac-RQRPR[NMeL]SHKGP[Nle]P[Phe(4-Cl)]-OH
SMILES: CCCC[C@H](NC(=O)[C@@H]1CCCN1C(=O)CNC(=O)[C@H](CCCCN)NC(=O)[C@H](Cc1c[nH]cn1)NC(=O)[C@H](CO)NC(=O)[C@H](CC(C)C)N(C)C(=O)[C@H](CCCNC(=N)N)NC(=O)[C@@H]1CCCN1C(=O)[C@H](CCCNC(=N)N)NC(=O)[C@H](CCC(N)=O)NC(=O)[C@H](CCCNC(=N)N)NC(C)=O)C(=O)N1CCC[C@H]1C(=O)N[C@@H](Cc1ccc(Cl)cc1)C(=O)O
B5: SEQ ID NO: 65 (peptide)
peptide: Ac-RQRP[NMeR]LSHKGP[Nle]P[Phe(4-Cl)]-OH
SMILES: CCCC[C@H](NC(=O)[C@@H]1CCCN1C(=O)CNC(=O)[C@H](CCCCN)NC(=O)[C@H](Cc1c[nH]cn1)NC(=O)[C@H](CO)NC(=O)[C@H](CC(C)C)NC(=O)[C@H](CCCNC(=N)N)N(C)C(=O)[C@@H]1CCCN1C(=O)[C@H](CCCNC(=N)N)NC(=O)[C@H](CCC(N)=O)NC(=O)[C@H](CCCNC(=N)N)NC(C)=O)C(=O)N1CCC[C@H]1C(=O)N[C@@H](Cc1ccc(Cl)cc1)C(=O)O
B6: SEQ ID NO: 116 (peptide)
peptide: QRPRLSHKGPXPF
modifications: {H2}[MerPr](10K mPEG acetamide)Q[NMehArg]P[NMeArg][aMeLeu]SHKGP[Nle]P[4-Cl-F]{COOH}
B7: SEQ ID NO: 94 (peptide)
peptide: SDFYKRLINKAKXXRRQRPRLSHKGXFPX
modifications: {Acetyl-NH}SDFYKRLINKAK[Aeea][Aeea][hArg]rQ[hArg]Pr[NMeLeu]SHKG[Oic][pI-Phe]P[D-Bip]{COOH}
B8: SEQ ID NO: 576 (peptide)
peptide: Heptadecanoyl-[AC4Abu][AEEA][AEEA][dQ]RP[NMeR][Cha]SHKG[Oic][Nle]P[dPhe(4-Cl)]-OH
SMILES: CCCCCCCCCCCCCCCCC(=O)NCCC(C(=O)O)C(=O)NCCOCCOCC(=O)NCCOCCOCC(=O)N[C@H](CCC(N)=O)C(=O)N[C@@H](CCCNC(=N)N)C(=O)N1CCC[C@H]1C(=O)N(C)[C@@H](CCCNC(=N)N)C(=O)N[C@@H](CC1CCCCC1)C(=O)N[C@@H](CO)C(=O)N[C@@H](Cc1c[nH]cn1)C(=O)N[C@@H](CCCCN)C(=O)NCC(=O)N1[C@H](C(=O)N[C@@H](CCCC)C(=O)N2CCC[C@H]2C(=O)N[C@H](Cc2ccc(Cl)cc2)C(=O)O)C[C@@H]2CCCC[C@@H]21
B9: SEQ ID NO: 67 (peptide)
peptide: Ac-RQRP[NMeR][NMeL]SHKGP[Nle]P[Phe(4-Cl)]-OH
SMILES: CCCC[C@H](NC(=O)[C@@H]1CCCN1C(=O)CNC(=O)[C@H](CCCCN)NC(=O)[C@H](Cc1c[nH]cn1)NC(=O)[C@H](CO)NC(=O)[C@H](CC(C)C)N(C)C(=O)[C@H](CCCNC(=N)N)N(C)C(=O)[C@@H]1CCCN1C(=O)[C@H](CCCNC(=N)N)NC(=O)[C@H](CCC(N)=O)NC(=O)[C@H](CCCNC(=N)N)NC(C)=O)C(=O)N1CCC[C@H]1C(=O)N[C@@H](Cc1ccc(Cl)cc1)C(=O)O
B10: SEQ ID NO: 114 (peptide)
peptide: QRPRLSHKGPXPF
modifications: {H2}[MerPr](10K mPEG acetamide)QR[aMePro][hArg][aMeLeu]SHKGP[Nle]P[4-Cl-F]{COOH}
B11: SEQ ID NO: 62 (peptide)
peptide: Ac-RQRPRLSHKGP[Nle]P[dBip]-OH
SMILES: CCCC[C@H](NC(=O)[C@@H]1CCCN1C(=O)CNC(=O)[C@H](CCCCN)NC(=O)[C@H](Cc1c[nH]cn1)NC(=O)[C@H](CO)NC(=O)[C@H](CC(C)C)NC(=O)[C@H](CCCNC(=N)N)NC(=O)[C@@H]1CCCN1C(=O)[C@H](CCCNC(=N)N)NC(=O)[C@H](CCC(N)=O)NC(=O)[C@H](CCCNC(=N)N)NC(C)=O)C(=O)N1CCC[C@H]1C(=O)N[C@H](Cc1ccc(-c2ccccc2)cc1)C(=O)O

These binders were tested against T1, human APJ receptor (assay: cell-based or functional assay).

Binder | EC50 Human APJ Receptor [nM]
B1 | 64
B2 | 2.32
{10K mPEG acetamide}-[Mpa]QRP[NMeR][Cha]SHKG[Oic][Nle][Aib][Phe(4-Cl)]-OH [SEQ ID NO: 120] | 63.2
B3 | 0.036
B4 | 0.0555
B5 | 0.0302
QRPRLSHKGPXPF ({H2}[MerPr](10K mPEG acetamide)QRP[NMeArg]LSHKGP[Nle]P[4-Cl-F]{COOH}) [SEQ ID NO: 115] | 1.66
QRPRLSHKGPXPF ({H2}[MerPr](10K mPEG acetamide)QrP[hArg][aMeLeu]SHKGP[Nle]P[4-Cl-F]{COOH}) [SEQ ID NO: 119] | 25.6
B6 | 9.71
B7 | 1.34
B8 | 3.33
H-KFRRQRPRLSHKGPMP-OH [SEQ ID NO: 12] | 1.42
KLRKHNXLQRRXMPLHSRVPFP ({H2}KLRKHN[Abu]LQRR[Abu]MPLHSRVPFP{COOH}) [SEQ ID NO: 14] | 0.301
QRPRLSHKGPXPF ({H2}[MerPr](10K mPEG acetamide)QRP[hArg][aMeLeu]SHKGP[Nle]P[4-Cl-F]{COOH}) [SEQ ID NO: 117] | 19.7
{mPEG 10 kDa acetamide}-[Mpa][dQ][hArg]P[NMeR][Cha]SHKG[Oic][Nle]P[dPhe(4-Cl)]-OH (numbers in words are those of the source; also: N-terminus written {H2}) [SEQ ID NO: 111] | 1100
B9 | 0.185
XXXQRPRLSHKGPXPF ({Dodecanoyl-NH}[AC4Abu][Aeea][Aeea]QRP[NMeArg]LSHKGP[Nle]P[4-Cl-F]{COOH}) [SEQ ID NO: 591] | 0.476
B10 | 0.848
B11 | 0.303
QRPRLSHKGPXPF ({H2}[MerPr](10K mPEG acetamide)Q[hArg]P[NMehArg]LSHKGP[Nle]P[4-Cl-F]{COOH}) [SEQ ID NO: 113] | 12.1

Each binder was assayed against T2, rat APJ receptor (assay: cell-based or functional assay).

Binder | EC50 Rat APJ Receptor [nM]
B1 | 47.8
B2 | 10.4
{10K mPEG acetamide}-[Mpa]QRP[NMeR][Cha]SHKG[Oic][Nle][Aib][Phe(4-Cl)]-OH [SEQ ID NO: 120] | 258
B3 | 0.164
B4 | 0.411
B5 | 0.122
QRPRLSHKGPXPF ({H2}[MerPr](10K mPEG acetamide)QRP[NMeArg]LSHKGP[Nle]P[4-Cl-F]{COOH}) [SEQ ID NO: 115] | 6.49
QRPRLSHKGPXPF ({H2}[MerPr](10K mPEG acetamide)QrP[hArg][aMeLeu]SHKGP[Nle]P[4-Cl-F]{COOH}) [SEQ ID NO: 119] | 141
B6 | 40.8
B7 | 1.33
B8 | 5.17
H-KFRRQRPRLSHKGPMP-OH [SEQ ID NO: 12] | 5.81
KLRKHNXLQRRXMPLHSRVPFP ({H2}KLRKHN[Abu]LQRR[Abu]MPLHSRVPFP{COOH}) [SEQ ID NO: 14] | 32.4
QRPRLSHKGPXPF ({H2}[MerPr](10K mPEG acetamide)QRP[hArg][aMeLeu]SHKGP[Nle]P[4-Cl-F]{COOH}) [SEQ ID NO: 117] | 117
{mPEG 10 kDa acetamide}-[Mpa][dQ][hArg]P[NMeR][Cha]SHKG[Oic][Nle]P[dPhe(4-Cl)]-OH (numbers in words are those of the source; also: N-terminus written {H2}) [SEQ ID NO: 111] | 777
B9 | 1.4
XXXQRPRLSHKGPXPF ({Dodecanoyl-NH}[AC4Abu][Aeea][Aeea]QRP[NMeArg]LSHKGP[Nle]P[4-Cl-F]{COOH}) [SEQ ID NO: 591] | 1.84
B10 | 3.46
B11 | 3.43
QRPRLSHKGPXPF ({H2}[MerPr](10K mPEG acetamide)Q[hArg]P[NMehArg]LSHKGP[Nle]P[4-Cl-F]{COOH}) [SEQ ID NO: 113] | 49.3

Reference: patent US10941182 (Amgen, dated 2021)
